Laboratory results published in publication PMC3161508 (Advances in experimental medicine and biology, 2010).

Biological target: the molecule itself
Test: non-reducing SDS-PAGE and Western blotting

B1: cone CNG channel β subunit CNGB3 (natural protein, mouse (endogenous in retina), UniProt Q9JJZ9 1-694, looked up)
chain: MLKSLTVKFNKVNPMEGRMEKKLCPNLSSLSQPTIAQGDNQSEKEPLRSRTPITFEKSHSKEDNSTGENSLRDFTPNPDPECRAELTRTMAEMEKTRTGKERPVSFKTKVLETSIINEYTDAHLHNLVERMRERTALYKKTLTEEENFPEVEASSQTAMSTNISPKQENNSKLKEHQDTFSFKPQRVPVKEHLRRMILPRSIDSYTDRVYLLWLLLVTIAYNWNCWLLPVRLVFPCQTPDNKNYWIITDIVCDIIYLCDILLIQPRLQFVRGGEIIVDSNELKRNYRSSTKFRMDVASLLPFEVLYIFFGVNPIFRANRILKYTSFFEFNHHLESIMDKAYVYRVIRTTGYLLFLLHINACVYYWASDYEGIGSTKWVYNGEGNKYLRCFYWAVRTLITIGGLPEPQTSFEIVFQFLNFFSGVFVFSSLIGQMRDVIGAATANQNYFQACMDHIIAYMNKYSIPQSVQYRVRTWLEYTWNSQRILDESNLLENLPTAMQLSIALDINFSIIDKVELFKGCDTQMIYDLLLRLKSTIYLPGDFVCKKGEIGKEMYIIKHGEVQVLGGPDGAQVLVTLKAGSVFGEISLLAKGGGNRRTADVVAHGFANLLTLDKKTLQEILLHYPTSKKLLMKKAKILLSQKGKTTQAIPARPGPAFLFPPKEETPRMLKVLLGNTGKVDLGRLLKGKRKTTTQK
stoichiometry N: 2
